Measurements published in the supplement of paper PMC7877785.
± gives the uncertainty stated by the source.

Test: self-splicing fitness, log relative to wild type (ln ratio); higher = more splicing; Tetrahymena group I intron in knt gene, E. coli kanamycin selection, DiMSum; sequences stand for … in CUCUCU…GGAGGGAAAAGUUAUCAGGCAUGCACCUGGUAGCUAGUCUUUAAACCAAUAGAUUGCAUCGGUUUAAAAGGCAAGACCGUCAAAUUGCGGGAAAGGGGUCAACAGCCGUUCAGUACCAAGUCUCAGGGGAAACUUUGAGAUGGCCUUGCAAAGGGUAUGGUAAUAAGCUGACGGACAUGGUCCUAACCACGCAGCCAAGUCCUAAGUCAACAGAUCUUCUGUUGAUAUGGAUGCAGUUCACAGACUAAAUGUCGGUCGGGGAAGAUGUAUUCUUCUCAUAAGAUAUAGUCGGACCUCUCCUUAAUGGGAGCUAGCGGAUGAAGUGAUGCAACACUGGAGCCGCUGGGAACUAAUUUGUAUGCGAAAGUAUAUUGAUUAGUUUUGGAGUACUCGUGGUCG
Procedure, shortened: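 The eight P1ex-region nucleotides of an intron in the knt kanamycin-resistance gene on pET-22b(+) were all randomised and the library put into E. coli BL21(DE3). Six replicate transformations were grown overnight at 37°C or 30°C on LB agar with or without 25 μg/mL kanamycin, together with 100 μg/mL carbenicillin, 50 μM IPTG and 0.2% rhamnose. Colonies were pooled and amplicon-sequenced on an Illumina HiSeq 2500. Fitness from DiMSum is the error-weighted combination of wild-type-normalised replicate fold changes, kanamycin over none.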

Sequence | self-splicing fitness (ln) (30 °C) | self-splicing fitness (ln) (37 °C)
CCUGAGCAAUAUUACGAUGA | -2.57 ± 0.2 | -1.44 ± 0.18
CCUGAGCAAUAUUACGAUGG | -4.46 ± 0.21 | -2.58 ± 0.19
CCUGAGCAAUAUUACGCCAU | -3.2 ± 0.4 | -2.13 ± 0.33
CCUGAGCAAUAUUACGGCAA | -2.14 ± 0.22 | -2.42 ± 0.21
CCUGAGCAAUAUUACGGCCA | -2.01 ± 0.34 | -2.05 ± 0.29
CCUGAGCAAUAUUACGGGCA | -2.93 ± 0.19 | -1.83 ± 0.17
CCUGAGCAAUAUUACGGGCG | -2.62 ± 0.23 | -2.1 ± 0.18
CCUGAGCAAUAUUACGGGGA | -3.07 ± 0.15 | -3.37 ± 0.2
CCUGAGCAAUAUUACGUAGC | -4.49 ± 0.27 | -1.77 ± 0.16
CCUGAGCAAUAUUACGUCAA | -2.73 ± 0.22 | -2.36 ± 0.3
CCUGAGCAAUAUUACGUCCA | -1.86 ± 0.28 | 
CCUGAGCAAUAUUACGUCGC |  | -2.54 ± 0.39
CCUGAGCAAUAUUACGUCUU |  | -2.42 ± 0.23
CCUGAGCAAUAUUACGUGAG | -3.61 ± 0.27 | -2.28 ± 0.24
CCUGAGCAAUAUUACGUGUU | -4.7 ± 0.34 | -2.52 ± 0.17
CCUUAGCAAUAUUACGAAAU | -3.26 ± 0.29 | -2.12 ± 0.31
CCUUAGCAAUAUUACGAACA |  | -0.92 ± 0.29
CCUUAGCAAUAUUACGAAUC | -2.65 ± 0.36 | -1.38 ± 0.34
CCUUAGCAAUAUUACGACGG | -2.31 ± 0.17 | -2.95 ± 0.3
CCUUAGCAAUAUUACGCAAA |  | -2.89 ± 0.34
CCUUAGCAAUAUUACGCGUA | -3.27 ± 0.38 | -2.54 ± 0.36
CCUUAGCAAUAUUACGCGUC | -4.42 ± 0.39 | -2.91 ± 0.31
CCUUAGCAAUAUUACGCUCG |  | -1.73 ± 0.27
CCUUAGCAAUAUUACGGAAU | -3.53 ± 0.2 | -3.15 ± 0.3
CCUUAGCAAUAUUACGGACA | -2.53 ± 0.32 | 
CCUUAGCAAUAUUACGGUAU | -3.64 ± 0.33 | -2.67 ± 0.36

Sequence | self-splicing fitness (ln) (30 °C) | self-splicing fitness (ln) (37 °C)
CCUUAGCAAUAUUACGGUCA |  | -3.63 ± 0.37
CCUUAGCAAUAUUACGGUCC | -3.5 ± 0.46 | -3.04 ± 0.35
CCUUAGCAAUAUUACGUAUG | -2.98 ± 0.19 | -0.234 ± 0.12
CCUUAGCAAUAUUACGUCCU | -2.36 ± 0.17 | -2.65 ± 0.38
CCUUAGCAAUAUUACGUGUA | -4.28 ± 0.43 | -1.47 ± 0.15
CCUUAGCAAUAUUACGUGUU | -4.69 ± 0.32 | -3.25 ± 0.21
CCUUAGCAAUAUUACGUUGG | -3.71 ± 0.21 | -3.32 ± 0.26
CGAAAGCAAUAUUACGAAGG | -1.05 ± 0.11 | -1.03 ± 0.16
CGAAAGCAAUAUUACGACAA | -1.13 ± 0.25 | -1.63 ± 0.18
CGAAAGCAAUAUUACGACAC | -2.69 ± 0.18 | -1.56 ± 0.26
CGAAAGCAAUAUUACGAGAC |  | -2.62 ± 0.24
CGAAAGCAAUAUUACGAGGG | -3.66 ± 0.14 | -2.17 ± 0.13
CGAAAGCAAUAUUACGAUAG | -0.598 ± 0.074 | 0.569 ± 0.1
CGAAAGCAAUAUUACGAUCC | -1.03 ± 0.16 | -0.798 ± 0.17
CGAAAGCAAUAUUACGAUGA | -0.9 ± 0.08 | -0.508 ± 0.088
CGAAAGCAAUAUUACGCAAC | -2.4 ± 0.18 | -2.39 ± 0.35
CGAAAGCAAUAUUACGCAAG | -1.44 ± 0.097 | -0.503 ± 0.12
CGAAAGCAAUAUUACGCAGA | -4.25 ± 0.42 | -0.12 ± 0.17
CGAAAGCAAUAUUACGCAGU | -3.8 ± 0.22 | -2.69 ± 0.17
CGAAAGCAAUAUUACGCCUC |  | -1.53 ± 0.32
CGAAAGCAAUAUUACGCGUG | -1.16 ± 0.068 | 0.12 ± 0.079
CGAAAGCAAUAUUACGCUAU | -4.13 ± 0.36 | -2.4 ± 0.27
CGAAAGCAAUAUUACGCUCC | -1.14 ± 0.18 | -1.11 ± 0.21
CGAAAGCAAUAUUACGGAAU | -3.69 ± 0.29 | -2.15 ± 0.49
CGAAAGCAAUAUUACGGAUA | -2.86 ± 0.18 | -3 ± 0.19
